Laboratory results taken from PMC13330650, “Phosphorylation of UDP-glucose dehydrogenase increases glycosaminoglycan biosynthesis and promotes tumor cell motility, spheroid growth, and therapeutic resistance” (Matrix biology : journal of the International Society for …, 2025).
Where “and” joins values, the source holds several entries; their conditions need not be identical. Equal values may be shown once.

Legend:
[1] = target: the molecule itself; assay: SEC; gel filtration chromatography of the purified enzyme, before addition of substrate and cofactor; hexamer and dimer peaks
[2] = target: the molecule itself; assay: SEC; gel filtration chromatography of the purified enzyme with substrate and cofactor added (holocomplex)

B1: UGDH Δ132, hexameric mutant (enzyme, human)
chain: MFEIKKICCIGAGYVGGPTCSVIAHMCPEIRVTVVDVNESRINAWNSPTLPIYEPGLKEVVESCRGKNLFFSTNIDDAIKEADLVFISVNTPTKTYGMGKGRAADLKYIEACARRIVQNSNGYKIVTEKSTPVRAAESIRRIFDANTKPNLNLQVLSNPEFLAEGTAIKDLKNPDRVLIGGDETPEGQRAVQALCAVYEHWVPREKILTTNTWSSELSKLAANAFLAQRISSINSISALCEATGADVEEVATAIGMDQRIGNKFLKASVGFGGSCFQKDVLNLVYLCEALNLPEVARYWQQVIDMNDYQRRRFASRIIDSLFNTVTDKKIAILGFAFKKDTGDTRESSSIYISKYLMDEGAHLHIYDPKVPREQIVVDLSHPGVSEDDQVSRLVTISKDPYEACDGAHAVVICTEWDMFKELDYERIHKKMLKPAFIFDGRRVLDGLHNELQTIGFQIETIGKKV
notes: construct of earlier work; Named only once, as a control of the gel filtration
stoichiometry N [1]: 6

B2: UGDH T325D, obligate dimer mutant (enzyme, human)
chain: MFEIKKICCIGAGYVGGPTCSVIAHMCPEIRVTVVDVNESRINAWNSPTLPIYEPGLKEVVESCRGKNLFFSTNIDDAIKEADLVFISVNTPTKTYGMGKGRAADLKYIEACARRIVQNSNGYKIVTEKSTVPVRAAESIRRIFDANTKPNLNLQVLSNPEFLAEGTAIKDLKNPDRVLIGGDETPEGQRAVQALCAVYEHWVPREKILTTNTWSSELSKLAANAFLAQRISSINSISALCEATGADVEEVATAIGMDQRIGNKFLKASVGFGGSCFQKDVLNLVYLCEALNLPEVARYWQQVIDMNDYQRRRFASRIIDSLFNDVTDKKIAILGFAFKKDTGDTRESSSIYISKYLMDEGAHLHIYDPKVPREQIVVDLSHPGVSEDDQVSRLVTISKDPYEACDGAHAVVICTEWDMFKELDYERIHKKMLKPAFIFDGRRVLDGLHNELQTIGFQIETIGKKV
notes: UDP-glucose 6-dehydrogenase, human, with T325D; also called UGDH T325D dimeric mutant
stoichiometry N [1]: 2

B3: UDP-glucose 6-dehydrogenase (UGDH), human, wild type, recombinant (enzyme, UniProt O60701 1-494, looked up)
chain: MFEIKKICCIGAGYVGGPTCSVIAHMCPEIRVTVVDVNESRINAWNSPTLPIYEPGLKEVVESCRGKNLFFSTNIDDAIKEADLVFISVNTPTKTYGMGKGRAADLKYIEACARRIVQNSNGYKIVTEKSTVPVRAAESIRRIFDANTKPNLNLQVLSNPEFLAEGTAIKDLKNPDRVLIGGDETPEGQRAVQALCAVYEHWVPREKILTTNTWSSELSKLAANAFLAQRISSINSISALCEATGADVEEVATAIGMDQRIGNKFLKASVGFGGSCFQKDVLNLVYLCEALNLPEVARYWQQVIDMNDYQRRRFASRIIDSLFNTVTDKKIAILGFAFKKDTGDTRESSSIYISKYLMDEGAHLHIYDPKVPREQIVVDLSHPGVSEDDQVSRLVTISKDPYEACDGAHAVVICTEWDMFKELDYERIHKKMLKPAFIFDGRRVLDGLHNELQTIGFQIETIGKKVSSKRIPYAPSGEIPKFSLQDPPNKKPKV
notes: UDP-glucose 6-dehydrogenase, human; In solution a mix of hexamer (trimer of dimers) and dimer; also called UGDH WT; WT UGDH
stoichiometry N [1]: 6 and 2

B4: UGDH S316D, phosphomimetic point mutant, recombinant (enzyme, human, UniProt O60701 1-494, looked up)
chain: MFEIKKICCIGAGYVGGPTCSVIAHMCPEIRVTVVDVNESRINAWNSPTLPIYEPGLKEVVESCRGKNLFFSTNIDDAIKEADLVFISVNTPTKTYGMGKGRAADLKYIEACARRIVQNSNGYKIVTEKSTVPVRAAESIRRIFDANTKPNLNLQVLSNPEFLAEGTAIKDLKNPDRVLIGGDETPEGQRAVQALCAVYEHWVPREKILTTNTWSSELSKLAANAFLAQRISSINSISALCEATGADVEEVATAIGMDQRIGNKFLKASVGFGGSCFQKDVLNLVYLCEALNLPEVARYWQQVIDMNDYQRRRFADRIIDSLFNTVTDKKIAILGFAFKKDTGDTRESSSIYISKYLMDEGAHLHIYDPKVPREQIVVDLSHPGVSEDDQVSRLVTISKDPYEACDGAHAVVICTEWDMFKELDYERIHKKMLKPAFIFDGRRVLDGLHNELQTIGFQIETIGKKVSSKRIPYAPSGEIPKFSLQDPPNKKPKV
notes: UDP-glucose 6-dehydrogenase, human
stoichiometry N [2]: 6 | stoichiometry N [1]: 2

B5: UGDH S316A, phosphodeficient point mutant, recombinant (enzyme, human, UniProt O60701 1-494, looked up)
chain: MFEIKKICCIGAGYVGGPTCSVIAHMCPEIRVTVVDVNESRINAWNSPTLPIYEPGLKEVVESCRGKNLFFSTNIDDAIKEADLVFISVNTPTKTYGMGKGRAADLKYIEACARRIVQNSNGYKIVTEKSTVPVRAAESIRRIFDANTKPNLNLQVLSNPEFLAEGTAIKDLKNPDRVLIGGDETPEGQRAVQALCAVYEHWVPREKILTTNTWSSELSKLAANAFLAQRISSINSISALCEATGADVEEVATAIGMDQRIGNKFLKASVGFGGSCFQKDVLNLVYLCEALNLPEVARYWQQVIDMNDYQRRRFAARIIDSLFNTVTDKKIAILGFAFKKDTGDTRESSSIYISKYLMDEGAHLHIYDPKVPREQIVVDLSHPGVSEDDQVSRLVTISKDPYEACDGAHAVVICTEWDMFKELDYERIHKKMLKPAFIFDGRRVLDGLHNELQTIGFQIETIGKKVSSKRIPYAPSGEIPKFSLQDPPNKKPKV
notes: as for B4
stoichiometry N [2]: 6 | stoichiometry N [1]: 2
